{"source": "paper PMC3061978", "origin": "cited, not measured here", "biological_target": "methylamine dehydrogenase (MADH) (Paracoccus denitrificans) (UniProt P22619)", "sequence (P22619 58-188, chain 1 of 2)": "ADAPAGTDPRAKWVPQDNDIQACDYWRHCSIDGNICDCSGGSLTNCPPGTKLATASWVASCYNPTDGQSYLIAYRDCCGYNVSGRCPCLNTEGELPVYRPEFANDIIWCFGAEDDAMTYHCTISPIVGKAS", "sequence (P29894 29-417, chain 2 of 2, further chain)": "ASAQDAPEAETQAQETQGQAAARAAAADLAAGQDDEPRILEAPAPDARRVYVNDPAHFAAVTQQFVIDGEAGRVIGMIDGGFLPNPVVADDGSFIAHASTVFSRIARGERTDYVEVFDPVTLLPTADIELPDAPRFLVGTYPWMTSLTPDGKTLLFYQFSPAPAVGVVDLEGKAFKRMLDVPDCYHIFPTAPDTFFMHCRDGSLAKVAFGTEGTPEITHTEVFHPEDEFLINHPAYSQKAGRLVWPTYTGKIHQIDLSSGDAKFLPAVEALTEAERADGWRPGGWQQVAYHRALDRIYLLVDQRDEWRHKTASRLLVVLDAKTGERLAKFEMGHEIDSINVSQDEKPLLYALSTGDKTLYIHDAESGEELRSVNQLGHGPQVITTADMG", "experiment": "kinetics"}
{"substance": "MauG (from UniProt Q51658)", "values": [{"measurement": "Kd", "value": 10.1, "unit": "µM"}]}
